# Measurements reported in patent publication US20200371101A1.
# Key:
# [1] = target: His-tagged IDO1 human recombinant protein (71182, BPS Biosciences) (human) (UniProt P14902); test: ELISA: biotin-PEG3 macrocycle on NeutrAvidin plate, His-tagged human IDO1 titrated, AP-conjugated anti-6XHis antibody, fluorescence
# [2] = target: His-tagged IDO1 human recombinant protein (71182, BPS Biosciences) (human) (UniProt P14902); test: sandwich ELISA: biotinylated macrocycle on NeutrAvidin plate, His-tagged IDO1 titrated, anti-6XHis-AP detection
# [3] = target: murine IDO1 protein (mouse) (UniProt P28776); test: ELISA, immobilized macrocycle, mouse IDO1 titrated
# [4] = target: His-tagged IDO1 human recombinant protein (71182, BPS Biosciences) (human) (UniProt P14902); test: ELISA, immobilized macrocycle, human IDO1 titrated
# [5] = target: His-tagged IDO1 human recombinant protein (71182, BPS Biosciences) (human) (UniProt P14902); test: cell-based or functional assay
# [6] = target: His-tagged IDO1 human recombinant protein (71182, BPS Biosciences) (human) (UniProt P14902); test: sandwich ELISA: 200 nM biotinylated macrocycle immobilized on NeutrAvidin plate, His-tagged IDO1 titrated, anti-6XHis-AP detection
# [7] = target: His-tagged IDO1 human recombinant protein (71182, BPS Biosciences) (human) (UniProt P14902); test: ELISA: biotinylated peptide on NeutrAvidin plate, 6xHis-tagged human IDO1 titrated
# [8] = target: His-tagged IDO1 human recombinant protein (71182, BPS Biosciences) (human) (UniProt P14902); test: binding analysis, method not named
# Chain of murine IDO1 protein (mouse) (P28776 2-406 limits assumed): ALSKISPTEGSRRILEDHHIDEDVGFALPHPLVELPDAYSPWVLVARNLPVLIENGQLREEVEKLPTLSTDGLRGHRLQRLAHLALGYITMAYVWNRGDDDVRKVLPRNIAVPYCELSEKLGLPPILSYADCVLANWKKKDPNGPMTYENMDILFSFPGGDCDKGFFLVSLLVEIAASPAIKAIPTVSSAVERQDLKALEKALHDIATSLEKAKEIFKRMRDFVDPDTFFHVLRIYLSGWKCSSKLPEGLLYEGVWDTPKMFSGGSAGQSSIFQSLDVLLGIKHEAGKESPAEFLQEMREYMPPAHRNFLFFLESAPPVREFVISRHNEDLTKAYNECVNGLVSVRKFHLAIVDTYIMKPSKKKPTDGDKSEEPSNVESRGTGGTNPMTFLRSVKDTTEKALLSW
# Chain of His-tagged IDO1 human recombinant protein (71182, BPS Biosciences) (human) (P14902 2-403 limits assumed): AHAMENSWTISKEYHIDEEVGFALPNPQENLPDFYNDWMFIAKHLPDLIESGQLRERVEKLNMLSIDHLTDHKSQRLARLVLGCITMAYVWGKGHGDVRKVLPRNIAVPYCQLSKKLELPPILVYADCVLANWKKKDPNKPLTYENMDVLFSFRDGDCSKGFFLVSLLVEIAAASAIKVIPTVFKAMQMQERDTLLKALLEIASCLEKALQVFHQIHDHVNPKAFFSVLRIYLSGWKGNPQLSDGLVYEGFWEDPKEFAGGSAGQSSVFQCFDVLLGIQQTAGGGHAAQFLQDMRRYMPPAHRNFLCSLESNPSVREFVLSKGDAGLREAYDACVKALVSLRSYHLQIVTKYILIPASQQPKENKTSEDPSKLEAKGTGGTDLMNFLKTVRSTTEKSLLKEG
substance,measurement,setting,value
nla(Me-Trp)(F-Phe) (peptide),EC50,[1],0.116 µM
nlf(Me-Trp)a (peptide),EC50,[1],0.104 µM
biotin-PEG3-Cy(nlw(Me-Trp)r) (peptide),EC50,[2],0.043 µM
same,EC50,[3],0.048 µM
same,EC50,[4],0.051 µM
pww(F-Phe) (peptide),EC50,[1],0.104 µM
Biotin-PEG3-Cy(spaw(F-Phe)) (peptide),EC50,[1],0.111 µM
spwwa (peptide),EC50,[1],0.111 µM
spww (peptide),EC50,[1],0.144 µM
Biotin-PEG3-Cy(lf(Me-Trp)(F-Phe)) (peptide),EC50,[1],0.039 µM
nlf(Me-Trp) (peptide),EC50,[1],0.045 µM
biotin-PEG3-Cy(rys(Me-Trp)r) (peptide),"IC50, IDO1 Fluorogenic Inhibitor Screening Assay (enzyme inhibition)",[5],> 40 µM
same,EC50,[3],0.017 µM
same,EC50,[4],0.091 µM
same,EC50,[6],0.081 µM
fra(Me-Trp)s (peptide),EC50,[1],0.107 µM
naf(Me-Trp)(F-Phe) (peptide),EC50,[1],0.082 µM
biotin-PEG3-Cy(nsh(F-Phe)r) (peptide),EC50,[2],0.068 µM
Biotin-PEG3-Cy(frf(Me-Trp)) (peptide),EC50,[1],0.012 µM
biotin-PEG3-Cy(nsfr(Me-Trp)) (peptide),EC50,[2],0.124 µM
same,EC50,[7],0.124 µM
Biotin-PEG3-Cy(arf(Me-Trp)s) (peptide),EC50,[1],0.079 µM
Biotin-PEG3-Cy(sww(F-Phe)) (peptide),EC50,[1],0.07 µM
apww(F-Phe) (peptide),EC50,[1],0.106 µM
biotin-PEG3-Cy(spww(F-Phe)) (peptide),EC50,[2],0.065 µM
same,"IC50, IDO1 Fluorogenic Inhibitor Screening Assay (enzyme inhibition)",[5],> 40 µM
same,EC50,[3],0.044 µM
same,EC50,[4],0.085 µM
alf(Me-Trp)(F-Phe) (peptide),EC50,[1],0.05 µM
Biotin-PEG3-Cy(saww(F-Phe)) (peptide),EC50,[1],0.042 µM
biotin-PEG3-Cy(frf(Me-Trp)s) (peptide),EC50,[2],0.02 µM
same,"IC50, IDO1 Fluorogenic Inhibitor Screening Assay (enzyme inhibition)",[5],> 40 µM
same,EC50,[7],0.02 µM
same,EC50,[3],0.036 µM
same,EC50,[4],0.018 µM
n-f(Me-Trp)(F-Phe) (peptide),EC50,[1],0.128 µM
nlfa(F-Phe) (peptide),EC50,[1],0.069 µM
Biotin-PEG3-Cy(frf(Me-Trp)a) (peptide),EC50,[1],0.057 µM
biotin-PEG3-Cy(nlf(Me-Trp)(F-Phe)) (peptide),EC50,[2],0.02 µM
same,EC50,[3],0.089 µM
same,EC50,[8],0.044 µM
same,EC50,[4],0.019 µM
